Reference: patent US20110027290A1 (Eli Lilly, published 2011)

How the values were obtained:
human IL-17 [1] = target: T1, human IL-17 (human, UniProt Q16552 20-155, limits assumed); test: cell-based or functional assay
T1 sequence: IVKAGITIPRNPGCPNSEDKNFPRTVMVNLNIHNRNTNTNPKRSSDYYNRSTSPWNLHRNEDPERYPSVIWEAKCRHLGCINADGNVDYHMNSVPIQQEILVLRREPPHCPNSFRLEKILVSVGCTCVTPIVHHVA

mouse IL-17 = target: T2, mouse IL-17 (murine, UniProt Q62386 26-158, limits assumed); test: ELISA, antigen coated on plate
T2 construct: also called murine IL-17
T2 sequence: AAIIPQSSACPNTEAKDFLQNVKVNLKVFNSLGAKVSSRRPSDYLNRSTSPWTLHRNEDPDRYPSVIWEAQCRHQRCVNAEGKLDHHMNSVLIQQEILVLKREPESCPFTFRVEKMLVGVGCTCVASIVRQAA
Method: (§1) In an exemplary assay, ELISA plate wells (Nunc Immuno Maxisorp) are coated with 100 μl (0.5 ng/ml in 1× coating buffer (BioFx)) of IL-17 family member proteins (R&D Systems) sealed and incubated overnight at 4° C. The solution in the well is removed by flicking and blocking buffer (200 μl 1.5% BSA in PBS) is added. The plates are incubated on a rotating shaker for 30 minutes at room temperature. Then 100 μl of an antibody to be tested is added per well at varying concentrations (e.g., 2, 0.4, 0.08, 0.016, 0.0032 and 0 μg/ml). The plates are again incubated overnight (4° C.) followed by warming on a rotating shaker (60 min room temp). Each plate-well is then washed five times with buffer (1× Ish buffer, BioFX). After washing, an appropriate commercially available HRP-conjugated secondary antibody (1:2000 in PBS with 1.5% BSA) is added (100 μl/well). Plates are re-incubated on a rotating shaker (60 min. room temp.) followed by buffer washing (5×) as described above. The colorimetric signal is developed by adding TMB (100 μl/well) until saturation (approx 3-5 min.) then further development is ended by adding stop solution (100 μl/well, BioFX). The color signal is measured at 450 nm absorbance using any appropriate ELISA plate reader. The degree of binding is proportional to color signal production.

human IL-17E = target: T3, human IL-17E (human, UniProt Q9H293 33-177); test: ELISA, antigen coated on plate
T3 sequence (looked up): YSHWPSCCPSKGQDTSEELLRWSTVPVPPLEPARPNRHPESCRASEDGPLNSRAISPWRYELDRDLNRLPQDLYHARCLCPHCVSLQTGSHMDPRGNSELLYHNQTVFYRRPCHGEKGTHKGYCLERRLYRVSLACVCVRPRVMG
Method: as §1

human IL-17D = target: T4, human IL-17D (human, UniProt Q8TAD2 18-202, limits assumed); test: ELISA, antigen coated on plate
T4 sequence (looked up): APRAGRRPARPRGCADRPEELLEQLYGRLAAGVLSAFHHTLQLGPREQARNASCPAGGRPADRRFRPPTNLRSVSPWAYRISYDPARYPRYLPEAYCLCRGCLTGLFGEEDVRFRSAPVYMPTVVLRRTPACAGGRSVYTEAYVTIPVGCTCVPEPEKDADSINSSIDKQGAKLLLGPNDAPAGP
Method: as §1

human IL-17C = target: T5, human IL-17C (human, UniProt Q9P0M4 19-197); test: ELISA, antigen coated on plate
T5 sequence (looked up): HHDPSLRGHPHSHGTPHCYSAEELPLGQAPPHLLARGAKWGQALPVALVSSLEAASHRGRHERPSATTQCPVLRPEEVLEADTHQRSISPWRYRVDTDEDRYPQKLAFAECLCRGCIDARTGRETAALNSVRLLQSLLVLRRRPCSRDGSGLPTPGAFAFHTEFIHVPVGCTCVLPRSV
Method: as §1

human IL-17B = target: T6, human IL-17B (human, UniProt Q9UHF5 21-180); test: ELISA, antigen coated on plate
T6 sequence (looked up): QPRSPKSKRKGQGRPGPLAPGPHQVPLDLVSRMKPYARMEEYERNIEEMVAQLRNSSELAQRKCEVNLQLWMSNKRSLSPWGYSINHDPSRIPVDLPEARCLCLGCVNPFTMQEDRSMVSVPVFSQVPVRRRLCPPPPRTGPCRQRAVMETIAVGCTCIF
Method: as §1

human IL-22 = target: T7, human IL-22 (human, UniProt Q9GZX6 34-179); test: ELISA, antigen coated on plate
T7 construct: Negative control antigen
T7 sequence (looked up): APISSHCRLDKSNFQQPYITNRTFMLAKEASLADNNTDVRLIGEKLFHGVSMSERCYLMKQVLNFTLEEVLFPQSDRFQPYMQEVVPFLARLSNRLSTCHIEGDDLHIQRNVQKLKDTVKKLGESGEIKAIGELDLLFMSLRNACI
Method: as §1

human IL-17F = target: T8, human IL-17F (human, UniProt Q96PD4 31-163); test: ELISA, antigen coated on plate
T8 sequence (looked up): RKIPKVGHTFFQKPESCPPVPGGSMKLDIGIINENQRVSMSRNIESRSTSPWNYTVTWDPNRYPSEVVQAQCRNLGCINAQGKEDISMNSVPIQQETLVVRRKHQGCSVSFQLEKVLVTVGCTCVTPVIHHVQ
Method: as §1

human IL-17 [2] = target: T1, human IL-17; test: SPR (BIACORE 2000), mAb captured on Protein A, IL-17 injected, 25 C, 1:1 with mass transfer model;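 further: CM4 chip with immobilized Protein A, HBS-EP running buffer pH 7.4, IL-17 titrated downward from 10 nM in twofold steps, 20 min dissociation phase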
Method: (§2) A BIACORE® 2000 instrument is used to measure antigen-antibody binding kinetics and affinity. The instrument utilizes the optical properties of surface plasmon resonance to detect alteration in protein concentration of interacting molecules within a dextran biosensor matrix. Except as noted, all reagents and materials are purchased from BIACORE® AB. All measurements are performed at 25° C. Samples are resuspended in HBS-EP buffer to a final concentration of 2 μg/ml (150 mM sodium chloride, 3 mM EDTA, 0.005% (w/v) surfactant P-20, and 10 mM HEPES, pH 7.4). Protein A is immobilized on flow cells 1 to 4 of a CM4 sensor chip at a level of 500 response units using an amine coupling kit.
(§3) Binding is evaluated using multiple analytical cycles. […] Association and dissociation rates for each cycle are evaluated using a “1:1 with mass transfer” binding model in the BIAevaluation software.

[3] = target: New Zealand white rabbit IL-17 (rabbit); test: SPR (BIACORE 2000), mAb captured on Protein A; biphasic, heterogeneous ligand model, first of two affinities
[4] = target: New Zealand white rabbit IL-17 (rabbit); test: SPR (BIACORE 2000), mAb captured on Protein A; biphasic, heterogeneous ligand model, second of two affinities
cynomolgus monkey IL-17 = target: T9, cynomolgus monkey IL-17 (cynomolgus monkey, UniProt Q16552 24-155 (human entry), limits assumed); test: SPR (BIACORE 2000), mAb captured on Protein A, IL-17 injected, 25 C, 1:1 with mass transfer model;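 further: CM4 chip with immobilized Protein A, HBS-EP running buffer pH 7.4, IL-17 titrated downward from 10 nM in twofold steps, 20 min dissociation phase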
T9 construct: Not commercially available; cloned and expressed; also called CYNO IL-17
T9 chain: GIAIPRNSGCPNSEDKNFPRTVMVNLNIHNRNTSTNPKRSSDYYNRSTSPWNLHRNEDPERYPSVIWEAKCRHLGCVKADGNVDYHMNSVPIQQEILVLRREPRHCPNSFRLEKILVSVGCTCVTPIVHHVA
Method: as §2, §3

Chain of New Zealand white rabbit IL-17 (rabbit) (chain, as listed by the source limits assumed, form in doubt): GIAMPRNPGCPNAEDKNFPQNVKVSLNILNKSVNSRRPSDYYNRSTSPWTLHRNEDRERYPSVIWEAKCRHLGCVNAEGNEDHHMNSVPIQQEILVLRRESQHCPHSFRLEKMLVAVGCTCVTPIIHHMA

IgG4 negative control (antibody)
AVG GROα, pg/ml at 2.56 pM antibody (60 ng/ml IL-17, HT-29 cells) (human IL-17 [1]): 1240 pg/ml | AVG GROα, pg/ml at 12.8 pM antibody (60 ng/ml IL-17, HT-29 cells) (human IL-17 [1]): 1350 pg/ml | AVG GROα, pg/ml at 64.0 pM antibody (60 ng/ml IL-17, HT-29 cells) (human IL-17 [1]): 1380 pg/ml | AVG GROα, pg/ml at 320.0 pM antibody (60 ng/ml IL-17, HT-29 cells) (human IL-17 [1]): 1390 pg/ml | AVG GROα, pg/ml at 1,600.0 pM antibody (60 ng/ml IL-17, HT-29 cells) (human IL-17 [1]): 1370 pg/ml | AVG GROα, pg/ml at 8,000.0 pM antibody (60 ng/ml IL-17, HT-29 cells) (human IL-17 [1]): 1420 pg/ml | AVG GROα, pg/ml at 40,000.0 pM antibody (60 ng/ml IL-17, HT-29 cells) (human IL-17 [1]): 1300 pg/ml

B1: Fab 121 (Fab, V domains shown)
VH: QVQLVQSGAEVKKPGSSVKVSCKASGYSFTDYHISWVRQAPGQGLEWMGVINPEYGTTDYNQRFKGRVTITADESTSTAYMELSSLRSEDTAVYYCARYDYFTGTGAYWGQGTLVTVSS
VL: DIVMTQTPLSLSVTPGQPASISCRSSQSLKHSRGNTFLHWYLQKPGQSPQLLIYKVSNRFIGVPDRFSGSGSGTDFTLKISRVEAEDVGVYYCSQSTHYPFTFGQGTKLEIK
notes: constant domains are not specified
binding result (mouse IL-17): no binding | binding result (human IL-17E): no binding | binding result (human IL-17D): no binding | binding result (human IL-17C): no binding | binding result (human IL-17B): no binding | binding result (human IL-22): no binding | binding result (human IL-17F): no binding

B2: mAb 131 (full-length, IgG4 Fc region) (antibody, V domains shown)
VH: QVQLVQSGAEVKKPGSSVKVSCKASGYSFTDYHIHWVRQAPGQGLEWMGVINPEYGTTDYNQRFKGRVTITADESTSTAYMELSSLRSEDTAVYYCARYDYFTGTGVYWGQGTLVTVSS
VL: DIVMTQTPLSLSVTPGQPASISCRSSKSLVHSRGNTYLHWYLQKPGQSPQLLIYKVSNRFIGVPDRFSGSGSGTDFTLKISRVEAEDVGVYYCSQSTHYPFTFGQGTKLEIK
Kd (human IL-17 [2]): 2.9 pM | koff (human IL-17 [2]): 1.6e-05 s⁻¹ | kon (human IL-17 [2]): 5.4e+06 M⁻¹ s⁻¹

B3: mAb 121 (full-length, IgG4 Fc region) (antibody, V domains shown)
VH: QVQLVQSGAEVKKPGSSVKVSCKASGYSFTDYHISWVRQAPGQGLEWMGVINPEYGTTDYNQRFKGRVTITADESTSTAYMELSSLRSEDTAVYYCARYDYFTGTGAYWGQGTLVTVSS
VL: DIVMTQTPLSLSVTPGQPASISCRSSQSLKHSRGNTFLHWYLQKPGQSPQLLIYKVSNRFIGVPDRFSGSGSGTDFTLKISRVEAEDVGVYYCSQSTHYPFTFGQGTKLEIK
notes: Full-length mAb with an IgG4 Fc region
Kd [3]: 0.51 nM | koff [3]: 0.0004 s⁻¹ | kon [3]: 800000 M⁻¹ s⁻¹ | decrease of the mean mouse KC level after human IL-17 injection in mice, 20 µg/mouse, compared to a control antibody (human IL-17 [1]): ~3 fold | Kd [4]: 1.5 nM | koff [4]: 0.021 s⁻¹ | kon [4]: 1.7e+07 M⁻¹ s⁻¹ | Kd (cynomolgus monkey IL-17): 1.1 pM | koff (cynomolgus monkey IL-17): 7e-06 s⁻¹ | kon (cynomolgus monkey IL-17): 7.8e+06 M⁻¹ s⁻¹ | Kd (human IL-17 [2]): 1.6 pM | koff (human IL-17 [2]): 1.5e-05 s⁻¹ | kon (human IL-17 [2]): 1e+07 M⁻¹ s⁻¹

B4: mAb 103 (full-length, IgG4 Fc region) (antibody, V domains shown)
VH: QVQLVQSGAEVKKPGSSVKVSCKASGYSFTDYHIHWVRQAPGQGLEWMGVINPEYGTTDYNQRFKGRVTITADESTSTAYMELSSLRSEDTAVYYCARYDYFTGTGAYWGQGTLVTVSS
VL: DIVMTQTPLSLSVTPGQPASISCRSSQSLRHSRGNTYLHWYLQKPGQSPQLLIYKVSNIFSGVPDRFSGSGSGTDFTLKISRVEAEDVGVYYCSQSTHYPFTFGQGTKLEIK
notes: also called full-length mAb 103
Kd [3]: 2 nM | koff [3]: 0.00036 s⁻¹ | kon [3]: 180000 M⁻¹ s⁻¹ | Kd [4]: 18.1 nM | koff [4]: 0.192 s⁻¹ | kon [4]: 1.06e+07 M⁻¹ s⁻¹ | Kd (cynomolgus monkey IL-17): 1.3 pM | koff (cynomolgus monkey IL-17): 1.1e-05 s⁻¹ | kon (cynomolgus monkey IL-17): 8.8e+06 M⁻¹ s⁻¹ | Kd (human IL-17 [2]): 1.4 pM | koff (human IL-17 [2]): 1.5e-05 s⁻¹ | kon (human IL-17 [2]): 1.1e+07 M⁻¹ s⁻¹

B5: Fab 126 (Fab, V domains shown)
VH: QVQLVQSGAEVKKPGSSVKVSCKASGYSFTDYHIHWVRQAPGQGLEWMGVINPMYGTTDYNQRFKGRVTITADESTSTAYMELSSLRSEDTAVYYCARYDYFTGTGVYWGQGTLVTVSS
VL: DIVMTQTPLSLSVTPGQPASISCRSSRSLVHSRGNTYLHWYLQKPGQSPQLLIYKVSNRFIGVPDRFSGSGSGTDFTLKISRVEAEDVGVYYCSQSTHLPFTFGQGTKLEIK
notes: as for B1
binding result (mouse IL-17): no binding | binding result (human IL-17E): no binding | binding result (human IL-17D): no binding | binding result (human IL-17C): no binding | binding result (human IL-17B): no binding | binding result (human IL-22): no binding

B6: mAb 118 (full-length, IgG4 Fc region) (antibody, V domains shown)
VH: QVQLVQSGAEVKKPGSSVKVSCKASGYSFTDYHISWVRQAPGQGLEWMGVINPMYGTTDYNQRFKGRVTITADESTSTAYMELSSLRSEDTAVYYCARYDYYTGTGVYWGQGTLVTVSS
VL: DIVMTQTPLSLSVTPGQPASISCRSSQSLVHSRGNTFLHWYLQKPGQSPQLLIYKVSNRFIGVPDRFSGSGSGTDFTLKISRVEAEDVGVYYCSQSTHYPFTFGQGTKLEIK
Kd (human IL-17 [2]): 3.9 pM | koff (human IL-17 [2]): 2e-05 s⁻¹ | kon (human IL-17 [2]): 5e+06 M⁻¹ s⁻¹

B7: mAb 104 (full-length, IgG4 Fc region) (antibody, V domains shown)
VH: QVQLVQSGAEVKKPGSSVKVSCKASGYSFTDYHIHWVRQAPGQGLEWMGVINPEYGTTDYNQRFKGRVTITADESTSTAYMELSSLRSEDTAVYYCARYDYFTGTGAYWGQGTLVTVSS
VL: DIVMTQTPLSLSVTPGQPASISCRSSKSLVHSRGNTFLHWYLQKPGQSPQLLIYKVSTRFSGVPDRFSGSGSGTDFTLKISRVEAEDVGVYYCSQSTHYPFTFGQGTKLEIK
notes: also called full-length mAb 104
Kd [3]: 1.9 nM | koff [3]: 0.00018 s⁻¹ | kon [3]: 100000 M⁻¹ s⁻¹ | Kd [4]: 20 nM | koff [4]: 0.07 s⁻¹ | kon [4]: 4e+06 M⁻¹ s⁻¹ | Kd (cynomolgus monkey IL-17): 0.5 pM | koff (cynomolgus monkey IL-17): 5e-06 s⁻¹ | kon (cynomolgus monkey IL-17): 9.4e+06 M⁻¹ s⁻¹ | Kd (human IL-17 [2]): 1.7 pM | koff (human IL-17 [2]): 1.1e-05 s⁻¹ | kon (human IL-17 [2]): 7.7e+06 M⁻¹ s⁻¹

B8: mAb 126 (full-length, IgG4 Fc region) (antibody, V domains shown)
VH: QVQLVQSGAEVKKPGSSVKVSCKASGYSFTDYHIHWVRQAPGQGLEWMGVINPMYGTTDYNQRFKGRVTITADESTSTAYMELSSLRSEDTAVYYCARYDYFTGTGVYWGQGTLVTVSS
VL: DIVMTQTPLSLSVTPGQPASISCRSSRSLVHSRGNTYLHWYLQKPGQSPQLLIYKVSNRFIGVPDRFSGSGSGTDFTLKISRVEAEDVGVYYCSQSTHLPFTFGQGTKLEIK
notes: as for B3
IC50, IL-17-induced GROα secretion from HT-29 cells (human IL-17 [1]): ~560 pM | Kd (cynomolgus monkey IL-17): 0.8 pM
